Results published in patent US20030203372A1, “Analysis method” (priority 2000, published 2003).

Key:
[1] = system: primary human cell cultures (11 cell types); test: Custom gene array, 11 human cell types in normoxia or hypoxia for 6 hr and 18 hr; format: cell-based
Outline: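 Values are each gene's expression relative to its median over all cell types and conditions, after per-array normalisation to control genes and merging of replicate arrays. Cells were 11 human types, mostly unmodified primary cultures, kept in normoxia or exposed to hypoxia for 6 hr or 18 hr.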

[2] = system: human macrophages; test: Custom gene array, macrophages with no cytokines, IL-10 or LPS + IFN, in normoxia and hypoxia; format: cell-based; settings: for mRNA EXPRESSION (experimental condition) #1: #1 no cytokines/normoxia; for mRNA EXPRESSION (experimental condition) #2: #2 no cytokines/hypoxia; for mRNA EXPRESSION (experimental condition) #3: #3 IL-10/normoxia; for mRNA EXPRESSION (experimental condition) #4: #4 IL-10/hypoxia; for mRNA EXPRESSION (experimental condition) #5: #5 LPS/IFN/normoxia; for mRNA EXPRESSION (experimental condition) #6: #6 LPS/IFN/hypoxia
Outline: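 Cultured macrophages were left untreated or given IL-10 or LPS + IFN, each at 100 ng/ml final, for 6 hr under normoxia or hypoxia (0.1% oxygen). Six conditions in total.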

[3] = system: human breast and ovary tumors; test: Custom gene array, breast and ovary tumors versus normal adjacent tissue; settings: Table 19; for gene expression level on custom gene array, Breast nor H / gene expression level on custom gene array, Breast nor K / gene expression level on custom gene array, Ovary nor E / gene expression level on custom gene array, Ovary nor F / gene expression level on custom gene array, Ovary nor G: normal adjacent tissue; for gene expression level on custom gene array, Breast nor H / gene expression level on custom gene array, Breast tum H: patient H; for gene expression level on custom gene array, Breast nor K / gene expression level on custom gene array, Breast tum K: patient K; for gene expression level on custom gene array, Breast tum H / gene expression level on custom gene array, Breast tum K / gene expression level on custom gene array, Ovary tum E / gene expression level on custom gene array, Ovary tum F / gene expression level on custom gene array, Ovary tum G: tumor tissue; for gene expression level on custom gene array, Ovary nor E / gene expression level on custom gene array, Ovary tum E: patient E; for gene expression level on custom gene array, Ovary nor F / gene expression level on custom gene array, Ovary tum F: patient F; for gene expression level on custom gene array, Ovary nor G / gene expression level on custom gene array, Ovary tum G: patient G
Outline: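 Values are per-gene relative to that gene's median across the series, after per-chip normalisation for labelling and hybridization efficiency. Samples: breast and ovary tumors with normal tissue from 5 patients of varied diagnoses, mostly from the same individual (one age-matched separate donor), compared within patient.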

[4] = Table 15, referenced to the median value of that gene throughout all 6 conditions
[5] = Table 17, referenced to median of the gene over 6 conditions

B1: p1F24 (nucleic acid, listed as Homo Sapiens)
DNA: ATGAACTGGCATCTCCCCCTCTTCCTCTTGGCCTCTGTGACGCTGCCTTCCATCTGCTCCCACTTCAATCCTCTGTCTCTCGAGGAACTAGGCTCCAACACGGGGATCCAGGTTTTCAATCAGATTGTGAAGTCGAGGCCTCATGACAACATCGTGATCTCTCCCCATGGGATTGCGTCGGTCCTGGGGATGCTTCAGCTGGGGGCGGACGGCAGGACCAAGAAGCAGCTCGCCATGGTGATGAGATACGGCGTAAATGGAGTTGGTAAAATATTAAAGAAGATCAACAAGGCCATCGTCTCCAAGAAGAATAAAGACATTGTGACAGTGGCTAACGCCGTGTTTGTTAAGAATGCCTCTGAAATTGAAGTGCCTTTTGTTACAAGGAACAAAGATGTGTTCCAGTGTGAGGTCCGGAATGTGAACTTTGAGGATCCAGCCTCTGCCTGTGATTCCATCAATGCATGGGTTAAAAACGAAACCAGGGATATGATTGACAATCTGCTGTCCCCAGATCTTATTGATGGTGTGCTCACCAGACTGGTCCTCGTCAACGCAGTGTATTTCAAGGGTCTGTGGAAATCACGGTTCCAACCCGAGAACACAAAGAAACGCACTTTCGTGGCAGCCGACGGGAAATCCTATCAAGTGCCAATGCTGGCCCAGCTCTCCGTGTTCCGGTGTGGGTCGACAAGTGCCCCCAATGATTTATGGTACAACTTCATTGAACTGCCCTACCACGGGGAAAGCATCAGCATGCTGATTGCACTGCCGACTGAGAGCTCCACTCCGCTGTCTGCCATCATCCCACACATCAGCACCAAGACCATAGACAGCTGGATGAGCATCATGGTCCCCAAGAGGGTGCAGGTGATCCTGCCCAAGTTCACAGCTGTAGCACAAACAGATTTGAAGGAGCCGCTGAAAGTTCTTGGCATTACTGACATGTTTGATTCATCAAAGGCAAATTTTGCAAAAATAACAAGGTCAGAAAACCTCCATGTTTCTCATATCTTGCAAAAAGCAAAAATTGAAGTCAGTGAAGATGGAACCAAAGCTTCAGCAGCAACAACTGCAATTCTCATTGCAAGATCATCGCCTCCCTGGTTTATAGTAGACAGACCTTTTCTGTTTTTCATCCGACATAATCCTACAGGTGCTGTGTTATTCATGGGGCAGATAAACAAACCC
In the case of B1, the mRNA expression level ([1]; cell type #1, HY (hypoxia) 6 hr) is reported as 0.70, the mRNA expression level ([1]; cell type #1, HY (hypoxia) 18 hr) is reported as 1.01 and the mRNA expression level ([1]; cell type #1, NO (normoxia)) is reported as 1.17. For the same molecule, the mRNA expression level ([1]; cell type #2, HY (hypoxia) 6 hr) was 5.52, the mRNA expression level ([1]; cell type #2, HY (hypoxia) 18 hr) was 8.15 and the mRNA expression level ([1]; cell type #2, NO (normoxia)) was 9.63. For the same molecule, the mRNA expression level ([1]; cell type #3, HY (hypoxia) 6 hr) was 0.87, the mRNA expression level ([1]; cell type #3, HY (hypoxia) 18 hr) was 0.56 and the mRNA expression level ([1]; cell type #3, NO (normoxia)) was 0.56. For the same molecule, the mRNA expression level ([1]; cell type #4, HY (hypoxia) 6 hr) was 11.5, the mRNA expression level ([1]; cell type #4, HY (hypoxia) 18 hr) was 14.2 and the mRNA expression level ([1]; cell type #4, NO (normoxia)) was 12.8. It also gave a mRNA expression level ([1]; cell type #5, HY (hypoxia) 6 hr) of 0.15, a mRNA expression level ([1]; cell type #5, NO (normoxia)) of 0.12 and a mRNA expression level ([1]; cell type #6, HY (hypoxia) 6 hr) of 0.14. For the same molecule, the mRNA expression level ([1]; cell type #6, NO (normoxia)) was 0.11, the “mRNA EXPRESSION (experimental condition) #1” value [2, 4] was 0.65 and the “mRNA EXPRESSION (experimental condition) #2” value [2, 4] was 0.68. For the same molecule, the “mRNA EXPRESSION (experimental condition) #3” value [2, 4] was 0.99, the “mRNA EXPRESSION (experimental condition) #4” value [2, 4] was 1.10 and the “mRNA EXPRESSION (experimental condition) #5” value [2, 4] was 1.62. The “mRNA EXPRESSION (experimental condition) #6” value [2, 4] was 1.80, the “gene expression level on custom gene array, Breast nor H” value [3] was 1.64 and the “gene expression level on custom gene array, Breast nor K” value [3] was 1.25. For the same molecule, the “gene expression level on custom gene array, Breast tum H” value [3] was 1.89, the “gene expression level on custom gene array, Breast tum K” value [3] was 0.96 and the “gene expression level on custom gene array, Ovary nor E” value [3] was 3.17. The “gene expression level on custom gene array, Ovary nor F” value [3] was 3.24, the “gene expression level on custom gene array, Ovary nor G” value [3] was 1.26 and the “gene expression level on custom gene array, Ovary tum E” value [3] was 0.93. The “gene expression level on custom gene array, Ovary tum F” value [3] was 0.85 and the “gene expression level on custom gene array, Ovary tum G” value [3] was 0.80.

B2: p1K2 (nucleic acid, listed as Homo Sapiens)
DNA: AAGTCTCAGAGGCTGGAGAGCAGAGCACCAAGATCGTTCTGGCAGGAACAGCCAGTGGGAGGTTCCAGCTGAGCGCTCCCCAGAGGTGAGCTGATCCCCAGCCACAGCACACAGGACCAGGCTGCGAGAACAGCATCATCAGCATCATGCTATTACAATCCCAAACCATGGGGGTTTCTCACAGCTTTACACCAAAGGGCATCACTATCCCTCAAAGAGAGAAACCTGGACACATGTACCAAAACGAAGATTACCTGCAGAACGGGCTGCCAACAGAAACCACCGTTCTTGGGACAGTCCAGATCCTGTGTTGCCTGTTGATTTCAAGTCTGGGGGCCATCTTGGTTTTTGCTCCCTACCCCTCCCACTTCAATCCAGCAATTTCCACCACTTTGATGTCTGGGTACCCATTTTTAGGAGCTCTGTGTTTTGGCATTACTGGATCCCTCTCAATTATCTCTGGAAAACAATCAACTAAGCCCTTTGACCTGAGCAGCTTGACCTCAAATGCAGTGAGTTCTGTTACTGCAGGAGCAGGCCTCTTCCTCCTTGCTGACAGCATGGTAGCCCTGAGGACTGCCTCTCAACATTGTGGCTCAGAAATGGATTATCTATCCTCATTGCCTTATTCGGAGTACTATTATCCAATATATGAAATCAAAGATTGTCTCCTGACCAGTGTCAGTTTAACAGGTGTCCTAGTGGTGATGCTCATCTTCACTGTGCTGGAGCTCTTATTAGCTGCATACAGTTCTGTCTTTTGGTGGAAACAGCTCTACTCCAACAACCCTGGGAGTTCATTTTCCTCGACCCAGTCACAAGATCATATCCAACAGGTCAAAAAGAGTTCTTCACGGTCTTGGATATAAGTAACTCTTGGCCTCAGAGGAAGGAAAAGCAACTCAACACTCATGGTCAAGTGTGATTAGACTTTCCTGAAATCTCTGCCATTTTAGATACTGTGAAACAAACTAAAAAAAAAAAAGCTTTTGTTTTGTATTTGTTTACTATGAGTCGTTATTTAATTTCTCTTGAAAATAATTTCCTCAAAGCCCAAGTCAATAAA
B2 was tested, and the “mRNA EXPRESSION (experimental condition) #1” value [2, 5] was 1.30, the “mRNA EXPRESSION (experimental condition) #2” value [2, 5] was 0.98 and the “mRNA EXPRESSION (experimental condition) #3” value [2, 5] was 0.51. For the same molecule, the “mRNA EXPRESSION (experimental condition) #4” value [2, 5] was 0.59, the “mRNA EXPRESSION (experimental condition) #5” value [2, 5] was 1.11 and the “mRNA EXPRESSION (experimental condition) #6” value [2, 5] was 0.91. For the same molecule, the “gene expression level on custom gene array, Breast nor H” value [3] was 1.00, the “gene expression level on custom gene array, Breast nor K” value [3] was 0.79 and the “gene expression level on custom gene array, Breast tum H” value [3] was 0.49. For the same molecule, the “gene expression level on custom gene array, Breast tum K” value [3] was 1.52, the “gene expression level on custom gene array, Ovary nor E” value [3] was 0.47 and the “gene expression level on custom gene array, Ovary nor F” value [3] was 1.30. For the same molecule, the “gene expression level on custom gene array, Ovary nor G” value [3] was 2.32, the “gene expression level on custom gene array, Ovary tum E” value [3] was 0.29 and the “gene expression level on custom gene array, Ovary tum F” value [3] was 1.06. The “gene expression level on custom gene array, Ovary tum G” value [3] was 0.31.
